Measurements: the Immune Epitope Database (IEDB)

What was measured:
HLA-A*30:02 = assay: IEDB peptide-MHC binding, purified MHC/competitive/radioactivity; filed as Kd, often an IC50 or EC50 that approximates it; ≥ and ≤ were set here for values at or beyond the usual limits of such assays
HLA-A*01:01 [1] = assay: as above
HLA-A*30:01 = assay: as above
HLA-A*32:01 = assay: as above
HLA-A*29:02 = assay: as above
HLA-A*26:01 [2] = assay: as above
HLA-A*24:02 [3] = assay: IEDB peptide-MHC binding, purified MHC/competitive/fluorescence; ≥ and ≤ were set here for values at or beyond the usual limits of such assays
HLA-A*11:01 [4] = assay: as above
HLA-B*15:01 [5] = assay: IEDB peptide-MHC binding, purified MHC/competitive/radioactivity; filed as Kd, often an IC50 or EC50 that approximates it; ≥ and ≤ were set here for values at or beyond the usual limits of such assays; conditions: source organism: Dengue virus 3 Martinique/1243/1999
HLA-A*68:01 = assay: as above; conditions: source organism: Dengue virus 1 Brazil/97-11/1997
HLA-A*02:01 [6] = assay: IEDB peptide-MHC binding, purified MHC/competitive/fluorescence; ≥ and ≤ were set here for values at or beyond the usual limits of such assays
HLA-B*51:01 = assay: IEDB peptide-MHC binding, purified MHC/competitive/radioactivity; filed as Kd, often an IC50 or EC50 that approximates it; ≥ and ≤ were set here for values at or beyond the usual limits of such assays
HLA-B*53:01 = assay: as above; conditions: source organism: Dengue virus 1 Brazil/97-11/1997
HLA-B*07:02 [7] = assay: as above; conditions: source organism: Dengue virus 1 Brazil/97-11/1997
HLA-B*35:01 = assay: as above; conditions: source organism: Dengue virus 1 Brazil/97-11/1997
HLA-B*15:01 [8] = assay: IEDB peptide-MHC binding, purified MHC/direct/fluorescence; filed as Kd, often an IC50 or EC50 that approximates it; ≥ and ≤ were set here for values at or beyond the usual limits of such assays; conditions: source organism: Pseudomonas aeruginosa
HLA-A*31:01 = assay: as above; conditions: source organism: Pseudomonas aeruginosa
HLA-A*69:01 = assay: as above; conditions: source organism: Pseudomonas aeruginosa
HLA-A*01:01 [9] = assay: as above; conditions: source organism: Pseudomonas aeruginosa
HLA-B*58:01 = assay: as above; conditions: source organism: Pseudomonas aeruginosa
HLA-B*07:02 [10] = assay: as above; conditions: source organism: Pseudomonas aeruginosa
HLA-A*11:01 [11] = assay: as above; conditions: source organism: Pseudomonas aeruginosa
HLA-A*03:01 = assay: as above; conditions: source organism: Pseudomonas aeruginosa
HLA-B*08:01 = assay: as above; conditions: source organism: Pseudomonas aeruginosa
HLA-A*02:01 [12] = assay: as above; conditions: source organism: Pseudomonas aeruginosa
HLA-B*40:01 = assay: as above; conditions: source organism: Pseudomonas aeruginosa
HLA-B*27:05 = assay: as above; conditions: source organism: Pseudomonas aeruginosa
HLA-A*26:01 [13] = assay: as above; conditions: source organism: Pseudomonas aeruginosa
HLA-B*15:01 [14] = assay: IEDB peptide-MHC binding, purified MHC/competitive/fluorescence; filed as Kd, often an IC50 or EC50 that approximates it; ≥ and ≤ were set here for values at or beyond the usual limits of such assays
HLA-A*24:02 [15] = assay: IEDB peptide-MHC binding, purified MHC/competitive/radioactivity; filed as Kd, often an IC50 or EC50 that approximates it; ≥ and ≤ were set here for values at or beyond the usual limits of such assays; conditions: source organism: Mammarenavirus oliverosense
HLA-A*23:01 = assay: as above; conditions: source organism: Mammarenavirus oliverosense
[16] = source organism: Mammarenavirus lassaense
[17] = source organism: Dengue virus 3 Martinique/1243/1999
[18] = source organism: Vaccinia virus WR
[19] = source organism: Lymphocytic choriomeningitis virus (strain Armstrong)
[20] = source organism: Zaire ebolavirus
[21] = source organism: Dengue virus 1 Brazil/97-11/1997
[22] = source organism: Sudan ebolavirus
[23] = source organism: Mammarenavirus brazilense

AAHSARPPPY
Kd (HLA-A*30:02; [16]): 4570 nM | Kd (HLA-A*01:01 [1]; [16]): 18800 nM | Kd (HLA-A*30:01; [16]): 114 nM | Kd (HLA-A*32:01; [16]): 2410 nM | Kd (HLA-A*29:02; [16]): 272 nM | Kd (HLA-A*26:01 [2]; [16]): 2280 nM

AGVLARWGTF
Kd (HLA-A*32:01; [17]): 8420 nM

AINFKIFNI
Kd (HLA-A*32:01; [18]): 22.1 nM

CSANNSHHY
Kd (HLA-A*30:02; [19]): 10.6 nM | Kd (HLA-A*01:01 [1]; [19]): 10.2 nM | Kd (HLA-A*30:01; [19]): ≥ 43700 nM | Kd (HLA-A*32:01; [19]): ≥ 49800 nM | Kd (HLA-A*29:02; [19]): 522 nM | Kd (HLA-A*26:01 [2]; [19]): 8050 nM

DFFSSHPLR
IC50 (HLA-A*24:02 [3]; [20]): ≥ 124000 nM

DYGLVSKFM
IC50 (HLA-A*24:02 [3]; [18]): 559 nM

EESASSGKL
IC50 (HLA-A*11:01 [4]; [20]): ≥ 214000 nM

EGAAIGLAW
IC50 (HLA-A*24:02 [3]; [20]): 2320 nM

EMCDDTVTY
Kd (HLA-A*30:02; [17]): ≥ 76900 nM | Kd (HLA-B*15:01 [5]): 99 nM | Kd (HLA-A*26:01 [2]; [17]): 11200 nM

EQAFYTRVL
IC50 (HLA-A*24:02 [3]; [18]): 58800 nM

EVMRSRWSRK
Kd (HLA-A*68:01): 8.94 nM | Kd (HLA-A*32:01; [21]): ≥ 50100 nM

EWAMEKSSK
IC50 (HLA-A*24:02 [3]; source organism: Vaccinia virus): ≥ 382000 nM

FHKEGAFFL
IC50 (HLA-A*24:02 [3]; [20]): 719 nM | IC50 (HLA-A*02:01 [6]; [20]): ≥ 97800 nM

FLFQLNDTI
IC50 (HLA-A*24:02 [3]; [22]): 879 nM | IC50 (HLA-A*02:01 [6]; [22]): 257 nM

FPLCLSTTSQ
Kd (HLA-B*51:01; [21]): ≥ 39600 nM | Kd (HLA-B*53:01): 36.3 nM | Kd (HLA-B*07:02 [7]): 179 nM | Kd (HLA-B*35:01): 514 nM

FSRENSLSGV
Kd (HLA-B*51:01; [21]): 7580 nM

GEDDDMLPW
Kd (HLA-B*15:01 [8]): ≥ 20000 nM | Kd (HLA-A*31:01): ≥ 20000 nM | Kd (HLA-A*69:01): ≥ 20000 nM | Kd (HLA-A*01:01 [9]): ≥ 20000 nM | Kd (HLA-B*58:01): ≥ 20000 nM | Kd (HLA-B*07:02 [10]): ≥ 20000 nM | Kd (HLA-A*11:01 [11]): ≥ 20000 nM | Kd (HLA-A*03:01): ≥ 20000 nM | Kd (HLA-B*08:01): ≥ 20000 nM | Kd (HLA-A*02:01 [12]): ≥ 20000 nM | Kd (HLA-B*40:01): 2590 nM | Kd (HLA-B*27:05): ≥ 20000 nM | Kd (HLA-A*26:01 [13]): ≥ 20000 nM

GIFGAIAGF
Kd (HLA-B*15:01 [14]; source organism: Influenza A virus (A/equine/NewMarket/D64/79(H3N8))): 288 nM

GLNISGYNY
Kd (HLA-A*30:02; [23]): 95.7 nM | Kd (HLA-A*01:01 [1]; [23]): 13400 nM | Kd (HLA-A*30:01; [23]): ≥ 39200 nM | Kd (HLA-A*32:01; [23]): 16500 nM | Kd (HLA-A*29:02; [23]): 16.8 nM | Kd (HLA-A*26:01 [2]; [23]): ≥ 67900 nM

GVVAFLILP
IC50 (HLA-A*24:02 [3]; [20]): ≥ 194000 nM | IC50 (HLA-A*02:01 [6]; [20]): 53900 nM

IALDLVTEI
Kd (HLA-B*51:01; [17]): 1.52 nM

ICLSGEGWPY
Kd (HLA-A*24:02 [15]): ≥ 70300 nM | Kd (HLA-A*30:01; [23]): 4290 nM | Kd (HLA-A*32:01; [23]): ≥ 21200 nM | Kd (HLA-A*23:01): ≥ 56800 nM

IEVKYSPMY
Kd (HLA-B*15:01 [14]; source organism: Bacillus cereus G9241): 221 nM

IGIEILNTI
IC50 (HLA-A*24:02 [3]; [18]): 131 nM | IC50 (HLA-A*02:01 [6]; [18]): 701 nM

ITLHLACGF
Kd (HLA-A*32:01; [18]): 1.41 nM

IVINPFVKF
Kd (HLA-A*32:01; [18]): 3260 nM

KACLEKVQR
IC50 (HLA-A*11:01 [4]; [20]): ≥ 188000 nM

KDESIFINK
IC50 (HLA-A*11:01 [4]; source organism: Vaccinia virus Copenhagen): ≥ 82600 nM
